Measured values: patent US20250215095

What was measured:
[1] = test system: internally quenched peptide probe with CM AWGLSGRS (SEQ ID NO: 686)
[2] = test system: internally quenched peptide probe with CM LSGKSPWGL (SEQ ID NO: 178)
[3] = test system: internally quenched peptide probe with CM LSGRSPAGL (SEQ ID NO: 694)
[4] = test system: internally quenched peptide probe with CM LSGRSPWGL (SEQ ID NO: 177)
[5] = test system: internally quenched peptide probe with CM PAGLSGRS (SEQ ID NO: 687)
[6] = test system: internally quenched peptide probe with CM PWALSGRS (SEQ ID NO: 688)
[7] = test system: internally quenched peptide probe with CM PWGASGRS (SEQ ID NO: 689)
[8] = test system: internally quenched peptide probe with CM PWGLAGRS (SEQ ID NO: 690)
[9] = test system: internally quenched peptide probe with CM PWGLRS (SEQ ID NO: 48)
[10] = test system: internally quenched peptide probe with CM PWGLSARS (SEQ ID NO: 691)
[11] = test system: internally quenched peptide probe with CM PWGLSG (SEQ ID NO: 684)
[12] = test system: internally quenched peptide probe with CM PWGLSGAS (SEQ ID NO: 692)
[13] = test system: internally quenched peptide probe with CM PWGLSGKS (SEQ ID NO: 150)
[14] = test system: internally quenched peptide probe with CM PWGLSGR (SEQ ID NO: 163)
[15] = test system: internally quenched peptide probe with CM PWGLSGRA (SEQ ID NO: 693)
[16] = test system: internally quenched peptide probe with CM PWGLSGRS (SEQ ID NO: 12)
[17] = test system: internally quenched peptide probe with CM RSPWGL (SEQ ID NO: 90)
[18] = test system: internally quenched peptide probe with CM WGLSGRS (SEQ ID NO: 685)

Sequence of matrix metalloprotease 9 (MMP9) (chain, as listed by the source): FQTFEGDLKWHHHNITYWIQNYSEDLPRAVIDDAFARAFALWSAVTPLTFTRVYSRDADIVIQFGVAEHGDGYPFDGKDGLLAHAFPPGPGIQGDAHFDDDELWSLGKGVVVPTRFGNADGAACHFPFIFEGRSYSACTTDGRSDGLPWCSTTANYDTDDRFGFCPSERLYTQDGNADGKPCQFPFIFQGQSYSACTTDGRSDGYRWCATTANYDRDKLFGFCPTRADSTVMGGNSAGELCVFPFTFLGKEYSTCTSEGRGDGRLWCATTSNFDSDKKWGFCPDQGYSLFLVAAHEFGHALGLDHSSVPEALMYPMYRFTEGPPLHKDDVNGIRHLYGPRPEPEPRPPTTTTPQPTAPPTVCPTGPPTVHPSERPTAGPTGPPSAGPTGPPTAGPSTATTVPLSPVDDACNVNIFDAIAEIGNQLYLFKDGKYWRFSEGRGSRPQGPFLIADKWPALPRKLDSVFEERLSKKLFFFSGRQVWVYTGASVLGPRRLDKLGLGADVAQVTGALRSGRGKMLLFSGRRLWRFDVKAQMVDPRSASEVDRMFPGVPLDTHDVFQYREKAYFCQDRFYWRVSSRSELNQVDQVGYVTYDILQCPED

matrix metalloprotease 9 (MMP9)
Probe Cleavage (pM/s) [1]: 2070 pM/s
Probe Cleavage (pM/s) [2]: 630 pM/s
Probe Cleavage (pM/s) [3]: 1630 pM/s
Probe Cleavage (pM/s) [4]: 1070 pM/s
Probe Cleavage (pM/s) [5]: 16200 pM/s
Probe Cleavage (pM/s) [6]: 12800 pM/s
Probe Cleavage (pM/s) [7]: 456 pM/s
Probe Cleavage (pM/s) [8]: 13700 pM/s
Probe Cleavage (kcat/KM (M^-1 s^-1)) [9]: 150000 M⁻¹ s⁻¹
Probe Cleavage (pM/s) [9]: 3830 pM/s
Probe Cleavage (pM/s) [10]: 17500 pM/s
Probe Cleavage (pM/s) [11]: 13000 pM/s
Probe Cleavage (pM/s) [12]: 16400 pM/s
Probe Cleavage (kcat/KM (M^-1 s^-1)) [13]: 130000 M⁻¹ s⁻¹
Probe Cleavage (pM/s) [13]: 5360 pM/s
Probe Cleavage (pM/s) [14]: 17200 pM/s
Probe Cleavage (pM/s) [15]: 17500 pM/s
Probe Cleavage (kcat/KM (M^-1 s^-1)) [16]: 150000 M⁻¹ s⁻¹
Probe Cleavage (pM/s) [16]: 7620 pM/s
Probe Cleavage (kcat/KM (M^-1 s^-1)) [17]: 870000 M⁻¹ s⁻¹
Probe Cleavage (pM/s) [17]: 25500 pM/s
Probe Cleavage (pM/s) [18]: 581 pM/s
